Experimental data from US20250237651A1 (ASAHI KASEI, published 2025).
Positions count from the first letter of the chain named.

Tests used:
[1] = molecular target: T1, Polypeptide 4 (part of Neisseria gonorrhoeae L7/L12 lacking amino acid residues 102 to 123) (Neisseria gonorrhoeae, UniProt A1KRG5 1-101); experiment: ELISA, polypeptide solid-phased at 2 ug/mL, HRP-labeled anti-IgG
T1 construct: Purified as a tagged fusion protein
T1 sequence: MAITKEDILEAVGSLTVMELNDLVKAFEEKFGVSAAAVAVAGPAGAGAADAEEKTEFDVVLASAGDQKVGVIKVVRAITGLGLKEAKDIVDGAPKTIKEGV

[2] = molecular target: T2, Polypeptide 5 (all of the L7/L12 amino acid sequence of Neisseria meningitidis) (Neisseria meningitidis, UniProt A1KRG5 1-123); experiment: as above
T2 construct: Differs from Neisseria gonorrhoeae L7/L12 only at residue 115 (glutamic acid instead of alanine); Purified as a tagged fusion protein
T2 sequence: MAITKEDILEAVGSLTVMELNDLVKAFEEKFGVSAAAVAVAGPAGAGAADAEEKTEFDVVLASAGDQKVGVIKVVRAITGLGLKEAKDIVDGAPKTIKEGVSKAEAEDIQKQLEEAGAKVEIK

[3] = molecular target: T3, Ribosomal protein L7/L12 of Neisseria meningitidis (in extracted sample solution of the bacteria) (Neisseria meningitidis, UniProt A1KRG5 1-123); experiment: sandwich ELISA, capture NG3, HRP-labelled NG1, N. meningitidis extract
T3 construct: also called Neisseria meningitidis L7/L12
T3 sequence: T2 sequence

[4] = molecular target: T4, Polypeptide 1 (all of the amino acid sequence of ribosomal protein L7/L12 of Neisseria gonorrhoeae) (Neisseria gonorrhoeae, UniProt B4RQW1 1-123); experiment: ELISA, polypeptide solid-phased at 2 ug/mL, antibody 100 ng/ml; + = absorbance 450 nm 0.1 or greater
T4 construct: Expressed in E. coli and purified as a fusion protein through a vector-derived tag
T4 sequence: T2 sequence with E115A

[5] = molecular target: T5, Polypeptide 2 (part of Neisseria gonorrhoeae L7/L12 lacking amino acid residues 1 to 14) (Neisseria gonorrhoeae, UniProt B4RQW1 15-123); experiment: as above
T5 construct: Purified as a tagged fusion protein

[6] = molecular target: T6, Polypeptide 3 (part of Neisseria gonorrhoeae L7/L12 lacking amino acid residues 1 to 63) (Neisseria gonorrhoeae, UniProt B4RQW1 64-123); experiment: as above
T6 construct: Purified as a tagged fusion protein
T6 sequence: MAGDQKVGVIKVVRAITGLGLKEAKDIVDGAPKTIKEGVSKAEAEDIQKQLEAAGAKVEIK

[7] = molecular target: T7, Ribosomal protein L7/L12 of Neisseria gonorrhoeae (in extracted sample solution of the bacteria) (Neisseria gonorrhoeae, UniProt B4RQW1 1-123); experiment: sandwich ELISA, primary (capture) NG1, HRP-labelled secondary NG3, N. gonorrhoeae extract 1e6 cfu/mL; Absorbance difference A 1.0 or greater
T7 construct: also called Neisseria gonorrhoeae L7/L12; Neisseria gonorrhoeae-derived antigen
T7 sequence: T2 sequence with E115A

B1: Antibody NG1 (antibody, V domains shown)
VH: EVQLQQSGAELVKPGASVKLSCTASGFNIKDTYIYWVKQRPEQGLEWIGRIDPANGHTKCDPKFQGKATITSDTSSNTAYLQLNSLTSEDTAVYYCSKGYFHYWGQGTTLTVSS
VL: DIQMTQSPSSLSASLGERVSLTCRASQEISGYLSWLQQKPDGTIKRLIYAASTLDSGVPKRFSGSRSGSDYSLTISSLESEDFADYYCQQYDSYPWTFGGGTKLEIK
notes: Mouse hybridoma monoclonal antibody raised against polypeptide 1; detected with an anti-IgG antibody; HRP-labelled or gold-colloid-labelled when used as detection antibody; also called Antibody species A
[1]
  binding result: no binding
[2]
  binding result: no binding
[3]
  binding result: no binding
[4]
  binding result: binds
[5]
  binding result: binds
[6]
  binding result: binds
[7]
  binding result: binds
